Laboratory results taken from PMC6709600 (Nature, 2019).

B1: full-length mGlu5, HA-FLAG-human mGlu5 (21-865) with a C-terminal hexahistidine tag (receptor)
chain: QSSERRVVAHMPGDIIIGALFSVHHQPTVDKVHERKCGAVREQYGIQRVEAMLHTLERINSDPTLLPNITLGCEIRDSCWHSAVALEQSIEFIRDSLISSEEEEGLVRCVDGSSSSFRSKKPIVGVIGPGSSSVAIQVQNLLQLFNIPQIAYSATSMDLSDKTLFKYFMRVVPSDAQQARAMVDIVKRYNWTYVSAVHTEGNYGESGMEAFKDMSAKEGICIAHSYKIYSNAGEQSFDKLLKKLTSHLPKARVVACFCEGMTVRGLLMAMRRLGLAGEFLLLGSDGWADRYDVTDGYQREAVGGITIKLQSPDVKWFDDYYLKLRPETNHRNPWFQEFWQHRFQCRLEGFPQENSKYNKTCNSSLTLKTHHVQDSKMGFVINAIYSMAYGLHNMQMSLCPGYAGLCDAMKPIDGRKLLESLMKTNFTGVSGDTILFDENGDSPGRYEIMNFKEMGKDYFDYINVGSWDNGELKMDDDEVWSKKSNIIRSVCSEPCEKGQIKVIRKGEVSCCWTCTPCKENEYVFDEYTCKACQLGSWPTDDLTGCDLIPVQYLRWGDPEPIAAVVFACLGLLATLFVTVVFIIYRDTPVVKSSSRELCYIILAGICLGYLCTFCLIAKPKQIYCYLQRIGIGLSPAMSYSALVTKTNRIARILAGSKKKICTKKPRFMSACAQLVIAFILICIQLGIIVALFIMEPPDIMHDYPSIREVYLICNTTNLGVVTPLGYNGLLILSCTFYAFKTRNVPANFNEAKYIAFTMYTTCIIWLAFVPIYFGSNYKIITMCFSVSLSATVALGCMFVPKVYIILAKPERNVRSAFTTSTVVRMHVGDGKSSSAASRSSSLVNL
B2: mGlu5 ECD (residues 21-569 of wild-type human metabotropic glutamate receptor subtype 5) (domain or fragment)
chain: QSSERRVVAHMPGDIIIGALFSVHHQPTVDKVHERKCGAVREQYGIQRVEAMLHTLERINSDPTLLPNITLGCEIRDSCWHSAVALEQSIEFIRDSLISSEEEEGLVRCVDGSSSSFRSKKPIVGVIGPGSSSVAIQVQNLLQLFNIPQIAYSATSMDLSDKTLFKYFMRVVPSDAQQARAMVDIVKRYNWTYVSAVHTEGNYGESGMEAFKDMSAKEGICIAHSYKIYSNAGEQSFDKLLKKLTSHLPKARVVACFCEGMTVRGLLMAMRRLGLAGEFLLLGSDGWADRYDVTDGYQREAVGGITIKLQSPDVKWFDDYYLKLRPETNHRNPWFQEFWQHRFQCRLEGFPQENSKYNKTCNSSLTLKTHHVQDSKMGFVINAIYSMAYGLHNMQMSLCPGYAGLCDAMKPIDGRKLLESLMKTNFTGVSGDTILFDENGDSPGRYEIMNFKEMGKDYFDYINVGSWDNGELKMDDDEVWSKKSNIIRSVCSEPCEKGQIKVIRKGEVSCCWTCTPCKENEYVFDEYTCKACQLGSWPTDDLTGCDLIP

Legend:
[1] = biological target: the molecule itself; test: cryo-EM structure
[2] = biological target: the molecule itself; test: crystal structure

Protein	binding result [1]	binding result [2]
B1	binds	
B2		binds
